Assay results from patent publication US20240228980A1.

Target: PB1 (influenza A/WSN/1933 polymerase subunit) (influenza A virus A/WSN/1933) (UniProt P03430)
Assay: cell-based or functional assay

Chain of PB1 (influenza A/WSN/1933 polymerase subunit) (influenza A virus A/WSN/1933) (P03430 whole entry): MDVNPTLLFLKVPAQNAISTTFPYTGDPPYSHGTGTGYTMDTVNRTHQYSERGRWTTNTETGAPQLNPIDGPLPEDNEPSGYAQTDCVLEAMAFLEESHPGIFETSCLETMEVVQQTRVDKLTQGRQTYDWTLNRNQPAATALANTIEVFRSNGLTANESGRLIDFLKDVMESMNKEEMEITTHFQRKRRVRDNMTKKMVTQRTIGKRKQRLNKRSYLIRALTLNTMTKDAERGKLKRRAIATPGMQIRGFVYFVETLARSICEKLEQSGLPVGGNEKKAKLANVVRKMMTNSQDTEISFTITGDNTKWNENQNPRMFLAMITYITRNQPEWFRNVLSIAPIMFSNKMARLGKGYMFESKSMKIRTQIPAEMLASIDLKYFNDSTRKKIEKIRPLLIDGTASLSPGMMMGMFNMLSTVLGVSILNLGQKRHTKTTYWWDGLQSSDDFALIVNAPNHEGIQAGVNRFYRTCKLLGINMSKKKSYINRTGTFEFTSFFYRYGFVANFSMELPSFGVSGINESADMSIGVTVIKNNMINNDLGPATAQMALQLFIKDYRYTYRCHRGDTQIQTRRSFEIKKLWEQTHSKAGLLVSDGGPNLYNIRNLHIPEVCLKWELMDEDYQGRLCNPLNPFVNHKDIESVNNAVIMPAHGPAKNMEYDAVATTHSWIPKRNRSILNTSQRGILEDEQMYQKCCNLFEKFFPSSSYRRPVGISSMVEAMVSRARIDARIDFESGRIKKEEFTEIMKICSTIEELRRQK

Row | Substance | virus titers [%]
1 | PB2 195/2223 DPR | 50
2 | PB2 416/2189 DPR (from UniProt P03427 1-131) | 50
